Measured values taken from article PMC8763658.

Biological target: MUC1 mucin (tumor‐associated MUC1) on human cancer cells (human (endogenous in T47D, A549, MCF-7)) (UniProt P15941)
Sequence of UniProt P15941 (P15941 24-1255, stated change not applied): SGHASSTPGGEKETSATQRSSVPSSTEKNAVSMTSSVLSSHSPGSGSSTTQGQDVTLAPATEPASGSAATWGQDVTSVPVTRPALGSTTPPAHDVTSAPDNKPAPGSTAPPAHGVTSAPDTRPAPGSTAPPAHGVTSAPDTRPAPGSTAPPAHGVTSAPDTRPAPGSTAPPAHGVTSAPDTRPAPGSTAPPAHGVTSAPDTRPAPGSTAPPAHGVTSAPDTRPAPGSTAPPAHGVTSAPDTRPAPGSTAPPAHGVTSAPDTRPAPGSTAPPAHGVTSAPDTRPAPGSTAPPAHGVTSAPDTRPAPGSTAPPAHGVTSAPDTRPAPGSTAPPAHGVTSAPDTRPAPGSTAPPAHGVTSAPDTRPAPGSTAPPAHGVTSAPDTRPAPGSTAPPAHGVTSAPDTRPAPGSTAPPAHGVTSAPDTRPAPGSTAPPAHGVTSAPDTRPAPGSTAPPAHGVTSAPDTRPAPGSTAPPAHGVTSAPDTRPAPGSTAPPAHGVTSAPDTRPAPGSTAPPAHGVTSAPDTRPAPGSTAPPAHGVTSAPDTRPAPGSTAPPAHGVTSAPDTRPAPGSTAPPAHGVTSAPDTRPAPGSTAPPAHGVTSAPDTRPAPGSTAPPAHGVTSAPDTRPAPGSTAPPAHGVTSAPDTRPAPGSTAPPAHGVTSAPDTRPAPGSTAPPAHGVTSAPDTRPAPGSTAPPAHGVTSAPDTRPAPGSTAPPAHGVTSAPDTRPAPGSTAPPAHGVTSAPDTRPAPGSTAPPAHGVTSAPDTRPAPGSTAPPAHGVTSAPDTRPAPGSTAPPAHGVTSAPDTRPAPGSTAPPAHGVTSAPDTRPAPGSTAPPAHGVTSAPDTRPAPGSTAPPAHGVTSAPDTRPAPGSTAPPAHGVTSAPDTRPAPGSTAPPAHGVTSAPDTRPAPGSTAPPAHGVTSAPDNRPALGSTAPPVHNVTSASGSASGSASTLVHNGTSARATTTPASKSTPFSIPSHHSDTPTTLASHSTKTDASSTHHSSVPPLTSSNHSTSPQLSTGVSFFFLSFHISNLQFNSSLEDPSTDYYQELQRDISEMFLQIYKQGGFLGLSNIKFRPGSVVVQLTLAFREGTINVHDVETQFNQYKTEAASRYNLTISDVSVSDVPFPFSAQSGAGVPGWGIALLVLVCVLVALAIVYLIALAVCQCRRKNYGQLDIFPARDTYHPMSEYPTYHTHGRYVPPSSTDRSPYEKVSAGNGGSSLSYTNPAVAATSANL

B1: recombinant anti‐MUC1 nanobody (VHH)
VHH: EVQLVESGGGLVQPGGSLRLSCAASGFTFDDYGMSWVRQAPGKWLEWVSDISWNGGSTYYADSVKGRFTISRDNAENTLYLQMNSLKPDDTAVYYCAKMGEGGWGANDYWGQGTQVTVSS
MTT viability assay, A549 cells, 48 h, IC50 of growth inhibition: 14.3 nM
MTT viability assay, MCF7 cells, 48 h, IC50 of growth inhibition: 7 nM
MTT viability assay, MDA‐MB‐231 cells, 48 h, IC50 of growth inhibition: 10 nM
MTT viability assay, SKBR3 cells, IC50 of growth inhibition: 4.16 nM
MTT viability assay, SW742 cells, 48 h, IC50 of growth inhibition: 7.2 nM
MTT viability assay, T47D cells, 48 h, IC50 of growth inhibition: 1.2 nM
